This data set deals with the molecule itself. The data set can be described thus: dynamic light scattering; HγD 50 µM with 1.5 equivalents of CuSO4, 10 mM ammonium acetate pH 7.2, 50 mM NaCl, 37 °C, measured every 1.6 min during 12 h.

B1: Human γD crystallin (natural protein)
chain: GKITLYEDRGFQGRHYECSSDHPNLQPYLSRCNSARVDSGCWMLYEQPNYSGLQYFLRRGDYADHQQWMGLSDSVRSCRLIPHSGSHRIRLYEREDYRGQMIEFTEDCSCLQDRFRFNEIHSLNVLEGSWVLYELSNYRGRQYLLMPGDYRRYQDWGATNARVGSLRRVIDFS
notes: Human γD crystallin (HγD), UniProt P07320; Only the vector pET16b is named; For NMR the protein was 15N-labelled (1H-15N HSQC); also called HγD; human gamma D crystallin; source: E. coli BL21-RIL (plasmid pET16b-HγD), purified (Q-Sepharose, Sephadex 200)
Turning to B1, the binding result is listed as “binds”.

The values are drawn from article PMC7295030, “Aggregation pathways of human γ D crystallin induced by metal ions revealed by time dependent methods” (PeerJ, 2020).
